This is an account of results in patent KR20220012810A (dated 2022).

Assay [1] addresses T1, MERS-CoV RBD (MERS-CoV, UniProt K9N5Q8 367-606).
T1 sequence: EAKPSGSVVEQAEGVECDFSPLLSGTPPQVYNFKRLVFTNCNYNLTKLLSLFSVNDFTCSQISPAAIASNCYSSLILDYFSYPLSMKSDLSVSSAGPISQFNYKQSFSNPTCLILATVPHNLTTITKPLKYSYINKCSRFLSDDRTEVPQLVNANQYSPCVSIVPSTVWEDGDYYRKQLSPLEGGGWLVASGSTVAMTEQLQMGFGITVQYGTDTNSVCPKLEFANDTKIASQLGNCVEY
Briefly: BLI (Octet). (In general: BLI is a label-free optical method that tracks binding on a fibre tip over time.)

The target in assay [2] is SARS-CoV S1 (SARS-CoV, UniProt P59594 14-667). Briefly: BLI (Octet).
Assay [3] has as its target T2, HCoV-HKU1 S1 (HCoV-HKU1, UniProt Q5MQD0 13-760).
T2 construct: domain: S1
T2 sequence: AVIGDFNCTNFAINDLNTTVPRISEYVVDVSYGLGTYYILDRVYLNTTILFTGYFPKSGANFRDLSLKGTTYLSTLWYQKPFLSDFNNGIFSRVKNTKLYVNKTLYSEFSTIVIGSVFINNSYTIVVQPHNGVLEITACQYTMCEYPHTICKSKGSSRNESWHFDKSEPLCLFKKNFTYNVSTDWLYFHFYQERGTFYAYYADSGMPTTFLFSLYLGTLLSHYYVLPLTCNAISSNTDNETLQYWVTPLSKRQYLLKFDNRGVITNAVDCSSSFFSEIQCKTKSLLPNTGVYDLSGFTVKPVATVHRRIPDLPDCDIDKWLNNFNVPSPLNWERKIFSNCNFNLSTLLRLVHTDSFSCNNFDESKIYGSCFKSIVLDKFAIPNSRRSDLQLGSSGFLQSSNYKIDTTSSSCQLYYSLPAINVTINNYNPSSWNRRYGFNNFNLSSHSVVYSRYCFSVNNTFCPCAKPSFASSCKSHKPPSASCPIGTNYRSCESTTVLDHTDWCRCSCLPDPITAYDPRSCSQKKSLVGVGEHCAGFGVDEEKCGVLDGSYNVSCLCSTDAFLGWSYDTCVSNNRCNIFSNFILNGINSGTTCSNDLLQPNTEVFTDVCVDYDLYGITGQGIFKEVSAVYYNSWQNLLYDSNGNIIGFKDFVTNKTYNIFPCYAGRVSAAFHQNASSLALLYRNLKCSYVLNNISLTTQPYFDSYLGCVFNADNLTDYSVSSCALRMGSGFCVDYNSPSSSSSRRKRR
Briefly: BLI (Octet).

Assay [4] has as its target SARS-CoV-2 spike D614 (pseudovirus) (SARS-CoV-2, UniProt P0DTC2 14-1273). Briefly: cell-based or functional assay.
The target of assay [5] is SARS-CoV-2 spike 'D614 or G614' (pseudovirus) (SARS-CoV-2, UniProt P0DTC2 14-1273). The assay can be described thus: cell-based or functional assay.

B1: No. 139 항체 (Full IgG) (antibody, V domains shown)
VH: QITLKESGPTLVKPTQTLTLTCSFSGFSLSTSGVGVGWIRQPPGKALEWLALIDWDDNKYHTTSLKTRLTISKDTSKNQVVLTMTNMDPVDTATYYCARIPGFLRYRNRYYYYGMDVWGQGTTVTVSS
VL: ELVLTQPPSVSAAPGQKVTISCSGSSSNIGNNYVSWYQQLPGTAPKLLIYDNNKRPSGIPDRFSGSKSGTSATLGITGLQTGDEADYYCGTWDSSLSAGVFGGGTELTVL
For the molecule B1, the binding result in assay [1], in assay [2] and in assay [3] was “no binding” throughout. For the same molecule, the entries for the “IC50, pseudovirus neutralisation” value in assay [4] and in assay [5] were 0.378 ng/mL and 0.35 ng/mL, respectively.
